From paper PMC5261807 (2017)
Each block holds one binder with its values, some of them ahead of it. Non-standard residues stand in square brackets, D forms with d. Primed or numbered codes have the meaning given here. No end group written: not given here. Me2a″ = asymmetric dimethylarginine (Rme2a); Arg(Me2a) = CN(C)C(=N)NCCC[C@H](N)C(=O)O; Lys(Me3) = C[N+](C)(C)CCCC[C@H](N)C(=O)O; Arg(Me2s) = CN=C(NC)NCCC[C@H](N)C(=O)O; pT = C[C@@H](OP(=O)(O)O)[C@H](N)C(=O)O; Me2a = asymmetric dimethyl (on Arg); Lys(Me2) = CN(C)CCCC[C@H](N)C(=O)O; Me2s = symmetric dimethyl (on Arg); pS = N[C@@H](COP(=O)(O)O)C(=O)O; Lys(Me) = CNCCCC[C@H](N)C(=O)O; Me3″ = trimethyl lysine (Kme3)

Tests used:
[1] = molecular target: T1, Bdf1 bromodomain 2 (GST-tagged, WT) (Saccharomyces cerevisiae (strain ATCC …, UniProt P35817)); test: histone peptide array probed with recombinant GST-bromodomain, signal normalised to myc peptide control
T1 chain: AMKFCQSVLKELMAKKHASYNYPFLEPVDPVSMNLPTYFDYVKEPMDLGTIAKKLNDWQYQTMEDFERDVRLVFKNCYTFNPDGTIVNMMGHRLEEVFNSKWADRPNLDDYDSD

[2] = molecular target: T2, Bdf1 bromodomain 1 (GST-tagged, WT) (Saccharomyces cerevisiae (strain ATCC …, UniProt P35817)); test: as above
T2 chain: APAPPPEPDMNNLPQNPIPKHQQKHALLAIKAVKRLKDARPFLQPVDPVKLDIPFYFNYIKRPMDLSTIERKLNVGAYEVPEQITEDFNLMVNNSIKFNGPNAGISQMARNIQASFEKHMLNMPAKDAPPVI

B4: H3 16-35 (peptide)
chain: PRKQLATKAARK(Ac)SAPATGG
- binding score [1]: 0.00915
- binding score [2]: 0

B6: H3 1-19 (peptide)
chain: ARTKQTARKSTGGKAPRKQ
modifications: A R T Kac Q T A Rme2s Kme3 S T G G K A P R K Q
- binding score [1]: 0.00482
- binding score [2]: 0.00287

B7: H3 1-19 (peptide)
chain: AR[pT][Lys(Me2)]QTARKSTGGKAPRKQ
- binding score [1]: 0.00895
- binding score [2]: 0.00161

B8: H4 1-19 (peptide)
chain: SGRGKGGKGLGKGGAKRHR
modifications: S G R G K G G K G L G Kac G G A Kac R H R
- binding score [1]: 0.21
- binding score [2]: 0.206

B10: H3 1-19 (peptide)
chain: ARTKQTAR(Me2a)K(Me)STGGKAPRKQ
- binding score [1]: 0

B11: H3 16-35 (peptide)
chain: PRKQLATKAA[Arg(Me2a)]K[pS]APATGG
- binding score [1]: 0
- binding score [2]: 0

B12: H2B 1-19 (peptide)
chain: PDPAKSAPAPKKGSKKAVT
modifications: not fully specified
- binding score [1]: 0.00266
- binding score [2]: 0

B13: H3 1-19 (peptide)
chain: A[Arg(Me2a)][pT]KQTARKSTGGKAPRKQ
- binding score [2]: 0

B16: H3 1-19 (peptide)
chain: ARTKQTARKSTGGKAPRKQ
modifications: A Rme2s T Kac Q T A Rme2s Kme3 S T G G K A P R K Q
- binding score [1]: 0.00521
- binding score [2]: 0.00538

B18: H3 1-19 (peptide)
chain: A[Arg(Me2s)]T[Lys(Me3)]QTA[Arg(Me2s)][Lys(Me3)]STGGKAPRKQ
- binding score [1]: 0
- binding score [2]: 0.00789

B19: H3 16-35 (peptide)
chain: PRKQLATKAAR[Lys(Me3)][pS]APATGG
- binding score [1]: 0
- binding score [2]: 0

B20: H3 1-19 (peptide)
chain: A[Arg(Me2s)]T[Lys(Me3)]QTAR[Lys(Me)]STGGKAPRKQ
- binding score [1]: 0.00895
- binding score [2]: 0

B21: H4 1-19 (peptide)
chain: SGRGKGGKGLGKGGAKRHR
modifications: S G Rme2s G Kac G G Kac G L G K G G A K R H R
- binding score [1]: 0.275
- binding score [2]: 0.123

B22: H4 1-19 (peptide)
chain: SGRGKGGKGLGKGGAKRHR
modifications: S G Rme2a G K G G Kac G L G K G G A K R H R
- binding score [1]: 0.0345
- binding score [2]: 0.0183

B25: H4 1-19 (peptide)
chain: SGRGKGGKGLGKGGAKRHR
modifications: histone peptides carry modifications given inline in the sequence and in columns 4-7 (Kac, Kme1/2/3, Rme2a/s, Cit, pS/pT); N-terminus free or acetylated
- binding score [1]: 0
- binding score [2]: 0.00897

B26: H3 1-19 (peptide)
chain: ARTKQTA[Arg(Me2a)]K[pS]TGGKAPRKQ
- binding score [1]: 0

B30: H4 1-19 (peptide)
chain: SGRGKGGKGLGKGGAKRHR
modifications: S G R G K G G Kac G L G K G G A K R H R
- binding score [1]: 0.0237
- binding score [2]: 0.0203

B31: H3 1-19 (peptide)
chain: ARTKQTARKSTGGKAPRKQ
modifications: A R T Kme1 Q T A Rme2s Kme2 S T G G K A P R K Q
- binding score [1]: 0.00364
- binding score [2]: 0.00879

B32: H4 1-19 (peptide)
chain: SGRGKGGKGLGKGGAKRHR
modifications: S G Rme2a G K G G K G L G K G G A K R H R
- binding score [1]: 0.00305
- binding score [2]: 0.0247

B34: H3 1-19 (peptide)
chain: ARTKQTARKSTGGKAPRKQ
modifications: A Rme2s T Kme3 Q T A Rme2s Kac S T G G K A P R K Q
- binding score [1]: 0.0385
- binding score [2]: 0.0104

B36: H3 1-19 (peptide)
chain: A[Arg(Me2s)][pT]KQTARKSTGGKAPRKQ
- binding score [1]: 0.00502
- binding score [2]: 0

B37: H3 1-19 (peptide)
chain: ART[Lys(Me3)]QTA[Arg(Me2s)][Lys(Me2)]STGGKAPRKQ
- binding score [1]: 0.00561
- binding score [2]: 0.00628

B38: H3 1-19 (peptide)
chain: ARTKQTARKSTGGKAPRKQ
modifications: A R T Kac Q T A Rme2a Kme1 S T G G K A P R K Q
- binding score [1]: 0.00423
- binding score [2]: 0.00323

B39: H3 1-19 (peptide)
chain: ARTKQTARKSTGGKAPRKQ
modifications: A Rme2a T Kme2 Q T A Rme2a Kme1 S T G G K A P R K Q
- binding score [1]: 0
- binding score [2]: 0.00897

B40: H3 1-19 (peptide)
chain: ARTKQTA[Arg(Me2a)][Lys(Me3)][pS]TGGKAPRKQ
- binding score [1]: 0
- binding score [2]: 0

B41: H3 1-19 (peptide)
chain: A[Arg(Me2a)][pT][Lys(Me2)]QTARKSTGGKAPRKQ
- binding score [1]: 0.00246
- binding score [2]: 0

B42: H3 16-35 (peptide)
chain: PRKQLATKAAR(Me2a″)K(Me3″)SAPATGG
- binding score [1]: 0.00167
- binding score [2]: 0

B43: H3 1-19 (peptide)
chain: ARTKQTARKSTGGKAPRKQ
modifications: A R T K Q T A Rme2a K S T G G K A P R K Q
- binding score [1]: 0
- binding score [2]: 0

B44: H3 1-19 (peptide)
chain: ARTKQTARKSTGGKAPRKQ
modifications: A Rme2a T Kme1 Q T A R Kme2 S T G G K A P R K Q
- binding score [1]: 0.0062
- binding score [2]: 0.00538

B47: H3 1-19 (peptide)
chain: ARTKQTARKSTGGKAPRKQ
modifications: A R T Kme1 Q T A Rme2s Kac S T G G K A P R K Q
- binding score [1]: 0.0265
- binding score [2]: 0.0247

B48: H3 1-19 (peptide)
chain: ARTKQTARKSTGGKAPRKQ
modifications: A Rme2s pT Kme2 Q T A R K S T G G K A P R K Q
- binding score [1]: 0
- binding score [2]: 0

Second part, the binder after the results:

- binding score [1]: 0.00285
- binding score [2]: 0.00197
B1: H3 1-19 (peptide)
chain: ARTKQTARKSTGGKAPRKQ
modifications: A Rme2a T Kme1 Q T A Rme2a Kme3 S T G G K A P R K Q

- binding score [1]: 0.00561
- binding score [2]: 0.00161
B2: H3 1-19 (peptide)
chain: AR(Me2s)TK(Ac)QTAR(Me2s)K(Me)STGGKAPRKQ

- binding score [1]: 0
B3: H3 1-19 (peptide)
chain: ARTKQTA[Arg(Me2a)]KS[pT]GGKAPRKQ

- binding score [1]: 0.944
- binding score [2]: 0.561
B5: H4 1-19 (peptide)
chain: SGRGKGGKGLGKGGAKRHR
modifications: S G R G Kac G G Kac G L G Kac G G A Kac R H R

- binding score [1]: 0
- binding score [2]: 0.00628
B9: H3 1-19 (peptide)
chain: ARTKQTARKSTGGKAPRKQ
modifications: A Rme2s T Kme1 Q T A Rme2a Kme3 S T G G K A P R K Q

- binding score [1]: 0
- binding score [2]: 0.00197
B14: H3 1-19 (peptide)
chain: A[Arg(Me2s)]T[Lys(Me3)]QTA[Arg(Me2a)][Lys(Me2)]STGGKAPRKQ

- binding score [1]: 0.00462
- binding score [2]: 0.0095
B15: H3 1-19 (peptide)
chain: A[Arg(Me2a)]TKQTARKSTGGKAPRKQ

- binding score [1]: 0.209
- binding score [2]: 0.108
B17: H3 1-19 (peptide)
chain: ARTKQTARKSTGGKAPRKQ
modifications: A R T K Q T A R Kac S T G G Kac A P R K Q

- binding score [1]: 0.00679
- binding score [2]: 0
B23: H3 1-19 (peptide)
chain: AR[pT]K(Me)QTARKSTGGKAPRKQ

- binding score [1]: 0.00915
- binding score [2]: 0.0052
B24: H3 1-19 (peptide)
chain: ARTKQTA[Arg(Me2s)][Lys(Me2)]S[pT]GGKAPRKQ

- binding score [1]: 0.0206
- binding score [2]: 0.0231
B27: H3 1-19 (peptide)
chain: A[Arg(Me2s)][pT]K(Ac)QTARKSTGGKAPRKQ

- binding score [1]: 0
- binding score [2]: 0
B28: H3 26-45 (peptide)
chain: RKSAPATGGVKKPHRYRPG
modifications: R K S A P A T G G V Kme2 K P H R Y R P G

- binding score [1]: 0
- binding score [2]: 0.00789
B29: H3 16-35 (peptide)
chain: PRKQLATKAA[Arg(Me2a)][Lys(Me2)]SAPATGG

- binding score [1]: 0.00207
- binding score [2]: 0.00699
B33: H3 1-19 (peptide)
chain: A[Arg(Me2a)]T[Lys(Me)]QTARK(Ac)STGGKAPRKQ

- binding score [1]: 0.006
- binding score [2]: 0
B35: H3 1-19 (peptide)
chain: ARTKQTARKSTGGKAPRKQ
modifications: A R T Kme2 Q T A R K S T G G K A P R K Q

- binding score [1]: 0.0707
- binding score [2]: 0
B45: H4 1-19 (peptide)
chain: SGRGKGGKGLGKGGAKRHR
modifications: S G Rme2a G Kac G G K G L G K G G A K R H R

- binding score [1]: 0.0867
- binding score [2]: 0.0387
B46: H3 1-19 (peptide)
chain: AR(Me2a″)TK(Ac)QTAR(Me2a″)K(Ac)STGGKAPRKQ

- binding score [1]: 0
- binding score [2]: 0
B49: H3 1-19 (peptide)
chain: ARTKQTARKSTGGKAPRKQ
modifications: A Rme2a T Kme3 Q T A Rme2a Kme1 S T G G K A P R K Q

- binding score [1]: 0
- binding score [2]: 0.00592
B50: H3 1-19 (peptide)
chain: ARTKQTARKSTGGKAPRKQ
modifications: A R T Kme2 Q T A Rme2s Kme3 S T G G K A P R K Q

- binding score [1]: 0.00364
- binding score [2]: 0.000897
B51: H3 1-19 (peptide)
chain: ARTKQTARKSTGGKAPRKQ
modifications: A R T K Q T A R Kac S T G G K A P R K Q
